Results: publication PMC4752221, “Nuclear Export of Pre-Ribosomal Subunits Requires Dbp5, but Not as an RNA-Helicase as for mRNA Export” (PLoS ONE, 2016)

Biological target: T1, His-Mtr2+Mex67 heterodimer (S. cerevisiae, UniProt Q99257 1-599; P34232 1-184)
T1 construct: Mex67 of S. cerevisiae, co-expressed with His-Mtr2; Mtr2 of S. cerevisiae, His-tagged; also called His-Mtr2 and Mex67; Mex67-Mtr2; source: E. coli BL21 DE3, co-expressed, purified (Ni-NTA agarose)
T1 sequence (looked up) 1: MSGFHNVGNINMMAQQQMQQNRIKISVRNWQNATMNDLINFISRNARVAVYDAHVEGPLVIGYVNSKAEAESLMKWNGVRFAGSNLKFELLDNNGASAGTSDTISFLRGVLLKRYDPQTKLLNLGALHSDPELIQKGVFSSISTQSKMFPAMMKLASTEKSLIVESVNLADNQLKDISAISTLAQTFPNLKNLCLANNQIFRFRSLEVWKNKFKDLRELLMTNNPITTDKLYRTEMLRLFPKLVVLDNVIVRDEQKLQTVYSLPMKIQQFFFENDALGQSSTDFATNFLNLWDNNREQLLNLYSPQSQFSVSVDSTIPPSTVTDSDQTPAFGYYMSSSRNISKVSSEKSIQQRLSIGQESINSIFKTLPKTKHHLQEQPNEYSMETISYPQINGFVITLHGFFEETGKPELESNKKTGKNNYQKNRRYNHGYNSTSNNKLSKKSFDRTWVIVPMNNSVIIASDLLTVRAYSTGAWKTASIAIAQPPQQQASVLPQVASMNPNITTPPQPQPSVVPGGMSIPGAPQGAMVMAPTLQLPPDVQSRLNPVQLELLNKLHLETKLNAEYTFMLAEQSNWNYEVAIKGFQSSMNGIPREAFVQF
T1 sequence (looked up) 2: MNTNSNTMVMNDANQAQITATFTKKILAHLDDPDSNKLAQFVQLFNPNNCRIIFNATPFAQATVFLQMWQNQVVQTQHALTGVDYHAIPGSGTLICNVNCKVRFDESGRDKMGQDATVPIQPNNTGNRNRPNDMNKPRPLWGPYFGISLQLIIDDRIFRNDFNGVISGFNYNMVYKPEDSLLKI
Experiment: pull-down; 100 μg purified GST-Dbp5 (mixed with bacterial lysate) held on Glutathione Sepharose 4B beads, washed, then 28 μg purified His-Mtr2+Mex67 added, 1 h at 4°C; 20 mM HEPES pH7.5, 100 mM NaCl, 4 mM MgCl2, 10% Glycerol, 0.1% NP-40, 1 mM DTT; with or without 1 mM ATP and 0.2 mg/ml RNase A (binding increased by ATP, not influenced by RNase A); Western blot and Coomassie
Conditions: both partners purified

binding result: binds
B1: GST-Dbp5 (natural protein, S. cerevisiae, UniProt P20449 1-482, looked up)
chain: MSDTKRDPADLLASLKIDNEKEDTSEVSTKETVKSQPEKTADSIKPAEKLVPKVEEKKTKQEDSNLISSEYEVKVKLADIQADPNSPLYSAKSFDELGLAPELLKGIYAMKFQKPSKIQERALPLLLHNPPRNMIAQSQSGTGKTAAFSLTMLTRVNPEDASPQAICLAPSRELARQTLEVVQEMGKFTKITSQLIVPDSFEKNKQINAQVIVGTPGTVLDLMRRKLMQLQKIKIFVLDEADNMLDQQGLGDQCIRVKRFLPKDTQLVLFSATFADAVRQYAKKIVPNANTLELQTNEVNVDAIKQLYMDCKNEADKFDVLTELYGLMTIGSSIIFVATKKTANVLYGKLKSEGHEVSILHGDLQTQERDRLIDDFREGRSKVLITTNVLARGIDIPTVSMVVNYDLPTLANGQADPATYIHRIGRTGRFGRKGVAISFVHDKNSFNILSAIQKYFGDIEMTRVPTDDWDEVEKIVKKVLKD
notes: Dbp5 (Rat8) of S. cerevisiae, GST-tagged, DBP5 in a pGEX backbone; also called recombinant GST-tagged Dbp5; source: E. coli Rosetta 2, purified (GSTrap 4B Glutathione Sepharose)
